“And” between values parts separate entries of the source, which are not always exact repeats. Equal values may be shown once. Read-outs that look alike come from different tables or passages of the source.
System: transcript levels in organs
Assay type: in vivo, cynomolgus monkey

B1: FGF23CTP: unique 75-mer COOH-terminal peptide of FGF-23, SEQ ID NO: 2 (peptide, listed as Homo sapiens)
chain: HTRSAEDDSERDPLNVLKPRARMTPAPASCSQELPSAEDNSPMASDPLGVVRGGRVNTHAGGTGPEGCRPFAKFI
Gene expression level after 2 weeks, mean: EGF-response factor 1 (AV node): 1,819.7 | Gene expression level after 2 weeks, mean: Endothelial differentiation receptor 6 (AV node): 306.9 | Gene expression level after 2 weeks, mean: FLT receptor tyrosine kinase 1 (AV node): 120.1 | Gene expression level after 2 weeks, mean: Insulin-like growth factor II (AV node): 565.275 | Gene expression level after 2 weeks, mean: Insulin-like growth factor binding protein 2 (AV node): 880.75 | Gene expression level after 2 weeks, mean: Vascular endothelial growth factor-A (VEGFA) (AV node): 363.7 | Gene expression level after 2 weeks, mean: Activin A receptor type II (Adrenal): 58.5 | Gene expression level after 2 weeks, mean: Bone morphogenetic protein 1 (Adrenal): 210.6 | Gene expression level after 2 weeks, mean: Bone morphogenetic protein receptor, type II (Adrenal): 101.25 | Gene expression level after 2 weeks, mean: Cdk-inhibitor 1A p21 (Cip1) (Adrenal): 51.75 | Gene expression level after 2 weeks, mean: E2F-5 (Adrenal): 39.6 | Gene expression level after 2 weeks, mean: FGF receptor-1 (Adrenal): 624.2 | Gene expression level after 2 weeks, mean: FLK1 receptor tyrosine kinase (Adrenal): 42.7 | Gene expression level after 2 weeks, mean: VE-cadherin (Adrenal): 110.2 | Gene expression level after 2 weeks, mean: Colony-stimulating factor-1 (B marrow): 981.3 | Gene expression level after 2 weeks, mean: Insulin-like growth factor II (B marrow): 209.5 | Gene expression level after 2 weeks, mean: Angiopoietin-1 (Bone Marrow): 123.2 | Gene expression level after 2 weeks, mean: Cyclin E2 (Bone Marrow): 257 | Gene expression level after 2 weeks, mean: E2F dimerization partner 2 (DP2) (Bone Marrow): 1222 | Gene expression level after 2 weeks, mean: Endothelial differentiation receptor 4 (Bone Marrow): 494.8 | Gene expression level after 2 weeks, mean: Mdm2 (Bone Marrow): 20 | Gene expression level after 2 weeks, mean: TEK tyrosine kinase, angiopoietin receptor (Bone Marrow): 52.7 | Gene expression level after 2 weeks, mean: Bone morphogenetic protein 2A (Duodenum): 55.3 | Gene expression level after 2 weeks, mean: Cdk-inhibitor p57KIP2 (KIP2) (Duodenum): 138.6 | Gene expression level after 2 weeks, mean: Cyclin I (Duodenum): 900.6 | Gene expression level after 2 weeks, mean: FLT receptor tyrosine kinase 1 (Duodenum): 70.7 | Gene expression level after 2 weeks, mean: Farnesol receptor HRR-1 (Duodenum): 53.1 | Gene expression level after 2 weeks, mean: Cyclin-dependent kinase 5 (Hippocampus): 118.7 | Gene expression level after 2 weeks, mean: E2F-4 (Hippocampus): 153.4 | Gene expression level after 2 weeks, mean: Neuregulin 1 (Hippocampus): 86.075 | Gene expression level after 2 weeks, mean: Cyclin D3 (Muscle): 149.2 | Gene expression level after 2 weeks, mean: E2F-4 (Muscle): 643.8 | Gene expression level after 2 weeks, mean: Endothelial differentiation receptor 6 (Muscle): 181.9 | Gene expression level after 2 weeks, mean: Insulin-like growth factor I (Muscle): 107.65 | Gene expression level after 2 weeks, mean: Placental growth factor (Muscle): 91.4 | Gene expression level after 2 weeks, mean: Retinoid X receptor-gamma (Muscle): 580.9 | Gene expression level after 2 weeks, mean: Transforming growth factor β2 (Muscle): 58.3 | Gene expression level after 2 weeks, mean: p53 binding protein (Muscle): 138.7 | Gene expression level after 2 weeks, mean: Activin A receptor type II (ROHY): 54.9 | Gene expression level after 2 weeks, mean: Angiopoietin-1 (ROHY): 162.5 | Gene expression level after 2 weeks, mean: Brain-specific angiogenesis inhibitor 1 (MAS5) (ROHY): 225.1 | Gene expression level after 2 weeks, mean: Cdk-inhibitor p19 (ROHY): 267.8 | Gene expression level after 2 weeks, mean: Colony-stimulating factor-1 (ROHY): 802.5 | Gene expression level after 2 weeks, mean: Cyclin A/CDK2-associated p19 (Skp1) (ROHY): 1069.6 | Gene expression level after 2 weeks, mean: Cyclin D2 (ROHY): 197.1 | Gene expression level after 2 weeks, mean: Cyclin-dependent kinase 4 (ROHY): 197.6 | Gene expression level after 2 weeks, mean: E2F-4 (ROHY): 245.9 | Gene expression level after 2 weeks, mean: EPHB2v protein-tyrosine kinase (ROHY): 119.1 | Gene expression level after 2 weeks, mean: Epidermal growth factor receptor (ROHY): 103.1 | Gene expression level after 2 weeks, mean: FGF receptor-1 (ROHY): 932.4 | Gene expression level after 2 weeks, mean: Growth differentiation factor 1 (ROHY): 1,410.2 | Gene expression level after 2 weeks, mean: RalGDS/AF-6 (inhibitor of Cyclin D1) (ROHY): 300.5 | Gene expression level after 2 weeks, mean: Retinoblastoma 1 (ROHY): 467.9 | Gene expression level after 2 weeks, mean: Retinoblastoma binding protein 4 (ROHY): 164 | Gene expression level after 2 weeks, mean: Retinoid X receptor-beta (ROHY): 106.925 | Gene expression level after 2 weeks, mean: S-phase response (cyclin-related) (ROHY): 176 | Gene expression level after 2 weeks, mean: Transforming growth factor β3 (ROHY): 88.4 | Gene expression level after 2 weeks, mean: Tumour necrosis factor receptor-2 (ROHY): 126.4 | Gene expression level after 2 weeks, mean: VEGFB (ROHY): 626.2 | Gene expression level after 2 weeks, mean: Vascular endothelial growth factor-A (VEGFA) (ROHY): 326.175 | Gene expression level after 2 weeks, mean: p53 binding protein (ROHY): 154.7 | Gene expression level after 2 weeks, mean: S-phase response (cyclin-related) (Re atrium): 159.1 | Gene expression level after 2 weeks, mean: Activin A receptor type II (Retina): 34.1 | Gene expression level after 2 weeks, mean: Brain-specific angiogenesis inhibitor 2 (Retina): 153.2 | Gene expression level after 2 weeks, mean: Cyclin D2 (Retina): 132 | Gene expression level after 2 weeks, mean: Insulin-like growth factor binding protein 2 (Retina): 807.9 | Gene expression level after 2 weeks, mean: Cdk-inhibitor p57KIP2 (KIP2) (Thymus): 247.9 | Gene expression level after 2 weeks, mean: FGF receptor-1 (Thymus): 153.2 | Gene expression level after 2 weeks, mean: TNFR-related death receptor-3 (cynomolgus monkey, in vivo): 82.4 | Gene expression level after 2 weeks, mean: TNFR-related death receptor-6 (cynomolgus monkey, in vivo): 144.65 and 98.8 | Gene expression level after 2 weeks, mean: Bone morphogenetic protein 10 (kidney): 138.6 | Gene expression level after 2 weeks, mean: Colony-stimulating factor-1 (kidney): 659.75 | Gene expression level after 2 weeks, mean: E2F-1 (kidney): 198.5 | Gene expression level after 2 weeks, mean: E2F-4 (kidney): 741.6 | Gene expression level after 2 weeks, mean: Neuregulin 1 (kidney): 150.725 | Gene expression level after 2 weeks, mean: Bone morphogenetic protein 10 (liver): 134.1 | Gene expression level after 2 weeks, mean: EPHB2v protein-tyrosine kinase (liver): 82.6 | Gene expression level after 2 weeks, mean: Endothelial differentiation receptor 4 (liver): 391.7 | Gene expression level after 2 weeks, mean: Farnesol receptor HRR-1 (liver): 383.3 | Gene expression level after 2 weeks, mean: Insulin-like growth factor I (liver): 1,055.4 | Gene expression level after 2 weeks, mean: Insulin-like growth factor II (liver): 606.9 | Gene expression level after 2 weeks, mean: Insulin-like growth factor binding protein 1 (liver): 1,517 | Gene expression level after 2 weeks, mean: Insulin-like growth factor binding protein 2 (liver): 3,858.6 | Gene expression level after 2 weeks, mean: 14-3-3 protein tau (rostral hypothalamus): 1,748.5 | Gene expression level after 2 weeks, mean: Amyloid beta precursor protein (cytoplasmic tail)-binding protein 2 (rostral hypothalamus): 191.3 | Gene expression level after 2 weeks, mean: Anion exchanger (rostral hypothalamus): 844.5 | Gene expression level after 2 weeks, mean: Axl (rostral hypothalamus): 60.3 | Gene expression level after 2 weeks, mean: BAX (rostral hypothalamus): 134.4 | Gene expression level after 2 weeks, mean: Bcl-2-binding protein Nip3 (rostral hypothalamus): 794.8 | Gene expression level after 2 weeks, mean: Bmi-1 homeobox gene repressor (rostral hypothalamus): 374.7 | Gene expression level after 2 weeks, mean: CMP-sialic acid transporter (rostral hypothalamus): 135.075 | Gene expression level after 2 weeks, mean: CREB binding protein (rostral hypothalamus): 93 | Gene expression level after 2 weeks, mean: Ca2+-ATPase (rostral hypothalamus): 174.4 | Gene expression level after 2 weeks, mean: Calcineurin A1 (rostral hypothalamus): 173.975 | Gene expression level after 2 weeks, mean: Cholecystokinin A receptor (rostral hypothalamus): 196 | Gene expression level after 2 weeks, mean: Connexin 43 (rostral hypothalamus): 184.5 | Gene expression level after 2 weeks, mean: Delta 2 catenin (rostral hypothalamus): 118 | Gene expression level after 2 weeks, mean: Erk3 (rostral hypothalamus): 409.5 | Gene expression level after 2 weeks, mean: FYN (rostral hypothalamus): 958.1 | Gene expression level after 2 weeks, mean: GDP dissociation inhibitor beta (rostral hypothalamus): 125.8 | Gene expression level after 2 weeks, mean: Glycogen synthase kinase 3 (rostral hypothalamus): 155.5 | Gene expression level after 2 weeks, mean: Hypoxia-inducible factor 1 alpha (rostral hypothalamus): 286.5 | Gene expression level after 2 weeks, mean: Inhibitor of DNA binding 4 (rostral hypothalamus): 67.6 | Gene expression level after 2 weeks, mean: JNK2 (rostral hypothalamus): 79.9 | Gene expression level after 2 weeks, mean: Jagged 1 (rostral hypothalamus): 70.3 | Gene expression level after 2 weeks, mean: Janus kinase 1 (rostral hypothalamus): 43.3 | Gene expression level after 2 weeks, mean: Mnb (Minibrain) (rostral hypothalamus): 446 | Gene expression level after 2 weeks, mean: Myelin oligodendrocyte glycoprotein (rostral hypothalamus): 62.7 | Gene expression level after 2 weeks, mean: Myosin regulatory light chain (rostral hypothalamus): 177.2 | Gene expression level after 2 weeks, mean: NIPSNAP2 (glioblastoma co-amplified) (rostral hypothalamus): 118.7 | Gene expression level after 2 weeks, mean: Na,K-ATPase (rostral hypothalamus): 1,453.2 | Gene expression level after 2 weeks, mean: Neural cell adhesion molecule 1 (rostral hypothalamus): 988.6 | Gene expression level after 2 weeks, mean: Neurofibromin (rostral hypothalamus): 144 | Gene expression level after 2 weeks, mean: Oligodendrocyte myelin glycoprotein OMGP (rostral hypothalamus): 773.5 | Gene expression level after 2 weeks, mean: PKR Interferon-inducible (rostral hypothalamus): 128.25 | Gene expression level after 2 weeks, mean: Phosphodiesterase 4B (rostral hypothalamus): 60.6 | Gene expression level after 2 weeks, mean: Phosphoinositide 3-kinase (rostral hypothalamus): 241.5 | Gene expression level after 2 weeks, mean: Phosphoinositide-3-kinase, catalytic, delta polypeptide (rostral hypothalamus): 241.5 | Gene expression level after 2 weeks, mean: Phospholipase C (rostral hypothalamus): 72.1 | Gene expression level after 2 weeks, mean: Pim1 (rostral hypothalamus): 327.5 | Gene expression level after 2 weeks, mean: Pinin, Desmosome associated protein (rostral hypothalamus): 119.7 | Gene expression level after 2 weeks, mean: RAB1 (rostral hypothalamus): 143.9 | Gene expression level after 2 weeks, mean: RAB5 (rostral hypothalamus): 809.8 | Gene expression level after 2 weeks, mean: RAB11A (rostral hypothalamus): 344.9 | Gene expression level after 2 weeks, mean: RAB11B (rostral hypothalamus): 71.2 | Gene expression level after 2 weeks, mean: RAS p21 protein activator (rostral hypothalamus): 163 | Gene expression level after 2 weeks, mean: RNP24 (rostral hypothalamus): 558.2 | Gene expression level after 2 weeks, mean: Reticulon 4 (rostral hypothalamus): 1,309.2 | Gene expression level after 2 weeks, mean: Retinoic acid receptor (rostral hypothalamus): 110 | Gene expression level after 2 weeks, mean: Ribosomal protein kinase B (RSK-B) (rostral hypothalamus): 120 | Gene expression level after 2 weeks, mean: SFRS protein kinase 2 (rostral hypothalamus): 205.8 | Gene expression level after 2 weeks, mean: SNARE (rostral hypothalamus): 55.4 | Gene expression level after 2 weeks, mean: STAT1 (rostral hypothalamus): 119.3 | Gene expression level after 2 weeks, mean: Sodium/hydrogen exchanger (rostral hypothalamus): 785.5 | Gene expression level after 2 weeks, mean: Sphingomyelinase (rostral hypothalamus): 259.5 | Gene expression level after 2 weeks, mean: TYRO3 (rostral hypothalamus): 163.1 | Gene expression level after 2 weeks, mean: TrkB (rostral hypothalamus): 40.8 | Gene expression level after 2 weeks, mean: Tropomyosin 2 (beta) (rostral hypothalamus): 131.6 | Gene expression level after 2 weeks, mean: Tropomyosin 4 (rostral hypothalamus): 140.6 | Gene expression level after 2 weeks, mean: c-abl (rostral hypothalamus): 119.4 | Gene expression level after 2 weeks, mean: c-raf (rostral hypothalamus): 327.5 | Gene expression level after 2 weeks, mean: c-yes (rostral hypothalamus): 64.7 | Gene expression level after 2 weeks, mean: RalGDS/AF-6 (inhibitor of Cyclin D1) (second line, organ cell empty (below ROHY)): 354.5

Reference: patent US20130040882A1, “USE OF FIBROBLAST GROWTH FACTOR FRAGMENTS” (NOVARTIS AG, priority 2003, published 2013)
